Laboratory results published in patent publication US10941182 (Amgen, dated 2021).
Starred links: 1 amine or outer side, 2 acyl side, 3 side chain; linkers in the order of their positions; H or OH if unused. Non-standard residues stand in square brackets, D forms with d. *: point of attachment. AC4Abu = α-carboxy-4-aminobutyric acid, O=C(C(CCN[*:1])C(=O)[*:3])[*:2]; Oic = O=C(O)[C@@H]1C[C@@H]2CCCC[C@@H]2N1; Phe(4-Cl) = N[C@@H](Cc1ccc(Cl)cc1)C(=O)O; γGlu = O=C(O)[C@H](CCC(=O)[*:2])N[*:1]; 2Nal = N[C@@H](Cc1ccc2ccccc2c1)C(=O)O; NMeR = CN[C@@H](CCCNC(=N)N)C(=O)O; Tridecanoyl = CCCCCCCCCCCCC(=O)*; hArg = N=C(N)NCCCC[C@H](N)C(=O)O; Cha = N[C@@H](CC1CCCCC1)C(=O)O; Tle = CC(C)(C)[C@H](N)C(=O)O; Nle = CCCC[C@H](N)C(=O)O; Deg = CCC(N)(CC)C(=O)O; AEEA = NCCOCCOCC(=O)O

Legend:
rat APJ receptor = target: T1, rat APJ receptor (rat, UniProt Q9JHG3 1-377); experiment: cell-based or functional assay
T1 sequence (looked up): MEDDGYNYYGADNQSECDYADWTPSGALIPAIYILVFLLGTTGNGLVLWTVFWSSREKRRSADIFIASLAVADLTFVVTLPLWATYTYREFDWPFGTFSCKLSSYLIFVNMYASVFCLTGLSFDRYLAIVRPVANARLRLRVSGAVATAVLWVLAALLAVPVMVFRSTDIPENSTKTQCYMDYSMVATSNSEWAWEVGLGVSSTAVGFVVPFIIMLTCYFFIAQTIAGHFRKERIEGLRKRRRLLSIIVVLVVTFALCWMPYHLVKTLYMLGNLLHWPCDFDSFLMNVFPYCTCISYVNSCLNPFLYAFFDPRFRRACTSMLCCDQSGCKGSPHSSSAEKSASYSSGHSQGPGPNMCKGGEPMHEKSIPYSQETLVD

human APJ receptor = target: T2, human APJ receptor (human, UniProt P35414 1-380); experiment: cell-based or functional assay
T2 sequence (looked up): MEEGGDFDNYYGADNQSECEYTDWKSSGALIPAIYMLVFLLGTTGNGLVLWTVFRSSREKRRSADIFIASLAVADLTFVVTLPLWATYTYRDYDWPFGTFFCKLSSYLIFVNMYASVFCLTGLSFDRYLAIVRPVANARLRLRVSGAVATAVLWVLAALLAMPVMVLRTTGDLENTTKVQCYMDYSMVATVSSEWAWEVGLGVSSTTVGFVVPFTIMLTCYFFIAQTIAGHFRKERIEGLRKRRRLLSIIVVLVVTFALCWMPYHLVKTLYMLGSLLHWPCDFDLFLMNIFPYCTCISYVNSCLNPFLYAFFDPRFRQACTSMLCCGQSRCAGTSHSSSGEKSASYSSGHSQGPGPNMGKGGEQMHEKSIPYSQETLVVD

Binder	EC50 Rat APJ Receptor (GTPγS assay) (rat APJ receptor)	EC50 Human APJ Receptor (GTPγS assay) (human APJ receptor)
Tridecanoyl-[γGlu][AEEA][AEEA]Q[hArg]P[NMeR][Cha]SHKG[Oic][Nle]P[Phe(4-Cl)]-OH (SMILES CCCCCCCCCCCCC(=O)N[C@@H](CCC(=O)NCCOCCOCC(=O)NCCOCCOCC(=O)N[C@@H](CCC(N)=O)C(=O)N[C@@H](CCCCNC(=N)N)C(=O)N1CCC[C@H]1C(=O)N(C)[C@@H](CCCNC(=N)N)C(=O)N[C@@H](CC1CCCCC1)C(=O)N[C@@H](CO)C(=O)N[C@@H](Cc1c[nH]cn1)C(=O)N[C@@H](CCCCN)C(=O)NCC(=O)N1[C@H](C(=O)N[C@@H](CCCC)C(=O)N2CCC[C@H]2C(=O)N[C@@H](Cc2ccc(Cl)cc2)C(=O)O)C[C@@H]2CCCC[C@@H]21)C(=O)O) [Apelin polypeptide SEQ ID NO: 362]	3.75 nM	1.97 nM
Tridecanoyl-[AC4Abu][AEEA][AEEA]Q[hArg]P[NMeR][Cha]SHKG[Oic][Nle]P[2Nal]-OH (SMILES CCCCCCCCCCCCC(=O)NCCC(C(=O)O)C(=O)NCCOCCOCC(=O)NCCOCCOCC(=O)N[C@@H](CCC(N)=O)C(=O)N[C@@H](CCCCNC(=N)N)C(=O)N1CCC[C@H]1C(=O)N(C)[C@@H](CCCNC(=N)N)C(=O)N[C@@H](CC1CCCCC1)C(=O)N[C@@H](CO)C(=O)N[C@@H](Cc1c[nH]cn1)C(=O)N[C@@H](CCCCN)C(=O)NCC(=O)N1[C@H](C(=O)N[C@@H](CCCC)C(=O)N2CCC[C@H]2C(=O)N[C@@H](Cc2ccc3ccccc3c2)C(=O)O)C[C@@H]2CCCC[C@@H]21) [Apelin polypeptide SEQ ID NO: 405]	13.8 nM	5.75 nM
Tridecanoyl-[γGlu][AEEA][AEEA][dQ][hArg]P[NMeR][Cha]SHKG[Oic][Nle]P[Phe(4-Cl)]-OH (SMILES CCCCCCCCCCCCC(=O)N[C@@H](CCC(=O)NCCOCCOCC(=O)NCCOCCOCC(=O)N[C@H](CCC(N)=O)C(=O)N[C@@H](CCCCNC(=N)N)C(=O)N1CCC[C@H]1C(=O)N(C)[C@@H](CCCNC(=N)N)C(=O)N[C@@H](CC1CCCCC1)C(=O)N[C@@H](CO)C(=O)N[C@@H](Cc1c[nH]cn1)C(=O)N[C@@H](CCCCN)C(=O)NCC(=O)N1[C@H](C(=O)N[C@@H](CCCC)C(=O)N2CCC[C@H]2C(=O)N[C@@H](Cc2ccc(Cl)cc2)C(=O)O)C[C@@H]2CCCC[C@@H]21)C(=O)O) [Apelin polypeptide SEQ ID NO: 478]	0.807 nM	0.496 nM
Tridecanoyl-[γGlu][AEEA][AEEA]Q[hArg]P[NMeR]LSHKG[Oic][Nle]P[Phe(4-Cl)]-OH (SMILES CCCCCCCCCCCCC(=O)N[C@@H](CCC(=O)NCCOCCOCC(=O)NCCOCCOCC(=O)N[C@@H](CCC(N)=O)C(=O)N[C@@H](CCCCNC(=N)N)C(=O)N1CCC[C@H]1C(=O)N(C)[C@@H](CCCNC(=N)N)C(=O)N[C@@H](CC(C)C)C(=O)N[C@@H](CO)C(=O)N[C@@H](Cc1c[nH]cn1)C(=O)N[C@@H](CCCCN)C(=O)NCC(=O)N1[C@H](C(=O)N[C@@H](CCCC)C(=O)N2CCC[C@H]2C(=O)N[C@@H](Cc2ccc(Cl)cc2)C(=O)O)C[C@@H]2CCCC[C@@H]21)C(=O)O) [Apelin polypeptide SEQ ID NO: 354]	0.361 nM	0.279 nM
XXXQRPRLSHKGPXPF ({TDA}[AC4Abu][Aeea][Aeea]Q[hArg]P[NMeArg]LSHKGP[Nle]P[4-Cl-F]{COOH}) [Apelin polypeptide SEQ ID NO: 353]	0.275 nM	0.095 nM
Tridecanoyl-[γGlu][AEEA][AEEA][dQ][hArg]P[dR][Cha]S[Deg]KG[Oic][Nle]P[Phe(4-Cl)]-OH (SMILES CCCCCCCCCCCCC(=O)N[C@@H](CCC(=O)NCCOCCOCC(=O)NCCOCCOCC(=O)N[C@H](CCC(N)=O)C(=O)N[C@@H](CCCCNC(=N)N)C(=O)N1CCC[C@H]1C(=O)N[C@H](CCCNC(=N)N)C(=O)N[C@@H](CC1CCCCC1)C(=O)N[C@@H](CO)C(=O)NC(CC)(CC)C(=O)N[C@@H](CCCCN)C(=O)NCC(=O)N1[C@H](C(=O)N[C@@H](CCCC)C(=O)N2CCC[C@H]2C(=O)N[C@@H](Cc2ccc(Cl)cc2)C(=O)O)C[C@@H]2CCCC[C@@H]21)C(=O)O) [Apelin polypeptide SEQ ID NO: 451]	31.6 nM	11.2 nM
Tridecanoyl-[γGlu][AEEA][AEEA][dQ][hArg]P[dR][Cha]S[Tle]KG[Oic][Nle]P[Phe(4-Cl)]-OH (SMILES CCCCCCCCCCCCC(=O)N[C@@H](CCC(=O)NCCOCCOCC(=O)NCCOCCOCC(=O)N[C@H](CCC(N)=O)C(=O)N[C@@H](CCCCNC(=N)N)C(=O)N1CCC[C@H]1C(=O)N[C@H](CCCNC(=N)N)C(=O)N[C@@H](CC1CCCCC1)C(=O)N[C@@H](CO)C(=O)N[C@H](C(=O)N[C@@H](CCCCN)C(=O)NCC(=O)N1[C@H](C(=O)N[C@@H](CCCC)C(=O)N2CCC[C@H]2C(=O)N[C@@H](Cc2ccc(Cl)cc2)C(=O)O)C[C@@H]2CCCC[C@@H]21)C(C)(C)C)C(=O)O) [Apelin polypeptide SEQ ID NO: 452]	25 nM	10.4 nM
Tridecanoyl-[γGlu][AEEA][AEEA][dQ][hArg]P[dR][Cha]SAKG[Oic][Nle]P[Phe(4-Cl)]-OH (SMILES CCCCCCCCCCCCC(=O)N[C@@H](CCC(=O)NCCOCCOCC(=O)NCCOCCOCC(=O)N[C@H](CCC(N)=O)C(=O)N[C@@H](CCCCNC(=N)N)C(=O)N1CCC[C@H]1C(=O)N[C@H](CCCNC(=N)N)C(=O)N[C@@H](CC1CCCCC1)C(=O)N[C@@H](CO)C(=O)N[C@@H](C)C(=O)N[C@@H](CCCCN)C(=O)NCC(=O)N1[C@H](C(=O)N[C@@H](CCCC)C(=O)N2CCC[C@H]2C(=O)N[C@@H](Cc2ccc(Cl)cc2)C(=O)O)C[C@@H]2CCCC[C@@H]21)C(=O)O) [Apelin polypeptide SEQ ID NO: 372]	1.5 nM	2.84 nM
Tridecanoyl-[γGlu][AEEA][AEEA][dQ][hArg]P[dR][Cha]SHK[Tle][Oic][Nle]P[Phe(4-Cl)]-OH [Apelin polypeptide SEQ ID NO: 371]	4.67 nM	6.92 nM
